Experimental data from the nanobody polyreactivity screen of Harvey et al. (2022).

Test: yeast display, Sf9 membrane polyspecificity reagent, FACS + sequencing; frameworks hold sequencing errors
Method in brief: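 Using colony PCR, genes from sorted yeast display clones were amplified, then sequenced on MiSeq at 2 × 250 and filtered by CDR length. The clones had been stained with 10% biotinylated, detergent-solubilized Sf9 membrane reagent for 1 hour at 4 °C and sorted by FACS into low and high (top ~1%) gates on anti-HA and streptavidin fluorescence. Polyreactivity labels come from the gate of origin.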

Sequence	polyreactivity (PSR sort gate)
QVQLVESGGGLVQAGGSLRLSCAASGFTFSHNPMGWYRQAPGKERELVATITRGGGNTYYADSVKGRCTISRDNAKNTVYLQMNSLKPEDTAVYYCSAERYKRMDYWGQGTQVTVSS	low polyreactivity
QVQLVESGGRLVQAGGSLRLSCAASGSTFSYYDMGGYRQAPGKEMELVADISWSGGSTYYADSVKGRFTISRDNAKNTVYLQMNSLKPEDTAVYYCAARGYVRWYNRYDYWGQGTQVTVSS	low polyreactivity
QVQLVESGGGLVQAGGSLRLSCAASGRIFSYYTMGWYRQAPGKERELVAAITASDGDTYYADSVKGRFTISRDNAKNTVYLQMNSLKPEDTAVYYCNAELFSVNGYDYWGQGTQVTVSS	low polyreactivity
QVQLVESGGGLVQAGGSLRLSCAASGRTFAYNDMGWYRQAPGKERELVAAITSVASTYYADSVKGRFTISRDNAKNTVYLQMNSLKPEDTAVYYCAADTRSLRPRYQLYGEDSWGQGTQVTVSS	low polyreactivity
QVQLVESGGGLVQAGGSLRLSCAASGFTFGYYAMGWYRQAPGKEREVVAAIRGGGRTNYADSVKGRFTISRDNAKITVYLQMNSLKPEDTAVYYCNADRLRTLRGDDWGQGSQVTVSS	low polyreactivity
QVQLVESGGGLVQAGGSLRLSCAASGIISSVYAMGWSRQAPGKERELVAAISGSGGSTYYADSVKGRFTISRDNAKNTVYLQMNSLKPEDTAVYYCAKGYQYQGNSYGYWGQGTQVTVSS	low polyreactivity
QVQLVESGGGLVQAGGSLRLSCAASGFTFWYYAMGWYRQAPGKERELVAAIDSGVTRTYYADSVKGRFTISRDNAKNTVYLQMNSLKPEDTAVYYCNADFVWRGDYWGQGTQVTVSS	low polyreactivity
QVQLVESGGGLVQAGGSLRLSCAASGIICPENAMGWYRQAPGKERELVAAISKSGGRTYYADSVKGRFTISRDNAKNTVYLQMNSLKPEDTAVYYCAKVPYAYSRDRSAEDSWGQATQVTVSS	high polyreactivity
QVQLVESGGGLVQAGGSLRLSCAASGFTNLNSMGRYRQAPGKERELVADISASGGTTYYADSVKGRFTISLDNAKNTVYLQMNSLKPEDTAVYYCAARRYYPRWYYWIRFDYWGQGTQVTVSS	high polyreactivity
QVQLVESGGGLVQAGGSLRLSCAASGRTFTGYAMGWYRQAPGKERELVASISRRGGSTYYADSVKGRFTISRDNAKNTVYLQMNSLKPEDTAVYSCAADSVRHTYSWWYAVDYWGQGTQVTVSS	high polyreactivity
QVQLVESGGGLVQAGGSLRLSCAASGSTFSTYAMGWYRQAPGKERELVAAITSSGGSTYYADSVKGRFTISRDNAKNTVYLQMNSLKPEDTAVYYCAAGRGYWWWYGYDYWGQGTQVTVSS	low polyreactivity
QVQLVESRGGLVQAGGSLRLTCAASGSTFAPNTMGWYRQAPGQERELVARITSSDGSTTYADSVKGRFTISRDNAKTTVYLQMNSLKPEHTAVYYCAADYGRRWGYDYWGQGTQVTVSS	low polyreactivity
QDQLVESGGGLVQAGGSLRLTCAASGSTFGVYTMGWYRQAPGKERELVAAITKSGGSTYYADSVKGRFTISRDNAKNTVYLQMNSLKPEETAVYYCATDADRPPRTPDISYVSNFDYWGQGTQVTVSS	low polyreactivity
QVQLVESGGGLVQAGGSLRLSCAASGSTFESYDMGWYRQAPGNERELVAAIDWSGGITYYADSVKGRFTISRDNAKNTVYLQMNSLKPEDTAVYYCNADWFVRYPKRVYWAEYDYWGQGTQVTVSS	low polyreactivity
QVQLVESGGGLVQAGGSLRLTCAASGFIFPRYAMGWYRQAPGKERELVAAISYSGGSTYYADSVKGRFTISRDNAKNTVYLQMNSLKPEDTAVYYCNKDFPPQGQLRNMYYWGQGTQVTVSS	high polyreactivity
QVQLVESGGGLVQAGGSLRLTCAASGRTFAINVMGWYIQAPGKERELVASIRGRGGRTNYADSVKGRFTISRDNAKNTVYLQMNRLKPEDTAVYYCAASQWWRYDYWGQGTQVTVSS	high polyreactivity
QVHLVESGGGLVQAGGSLRLTCAASGSIFTVYALGWYRQAPGKERELVAAITRNGGRTYYADSVKGRFTISRDNAKNTVYLQMNSLIPEDTAGYYCAAPGLYSRLDYWGQGTQVTVSS	high polyreactivity
QVQLVESGGGLVQAGGSLRLTCAASGFIFQNYAMGWYIQAPGKERELVSAIDFTDGSKYYADSVKGRYTISRDNAKNSVYLQMNSLKPEDTSVDYCNALDYLYGGIYLEEDYWGQGTQVTVSS	low polyreactivity
QVQLVESGGGLVQAGGSLRLSCAASGSTLSGNAMGWYRQAPGKERELVAAIRWSGDITYYADSVKGRFTISRDNAKNTVYLQMNSLKPEDTAVYYCAATLGNRWFHYNYWGQGTQVTVSS	low polyreactivity
QVQLVESGGGLVQAGGSLRLSCAASGSIFQSNAMGWYRQPPGKERELVAAISSSGVRTYYADSVKGRFTISRDNAKNTVYLQMNSLKPEDTAVYFCATGWYYAGGPTYEYYYWGQGTQVTVSS	low polyreactivity
QVQLVESGGGLVQAGGRLRFSCAASGNTFPHNTMGWYRKAPGKERELVSTNYADSVKGRFTISRDNAKNSVYLQMNSLKPEDTAVYYCHADGTFEYDYWGQGTQVTVSS	low polyreactivity
QVQLVESGGGLDQAGGSLRLSCAASGSTFRNNAMGCYRQAPGKEREFVAAISRRGGSTYADSVKGRFTISRDNAKITVYLQMNSLKPEDTAVYFCAVRPSRILTGGRMDYWGQGTQVTVSS	high polyreactivity

Sequence	polyreactivity (PSR sort gate)
QVQLVESGGGLVQAGGSLRLSCAASGSIFDYYAMGWDRQAPGKERELVAAISWSGGSTYYADSVKGRFTISRDNAKNTVYLHMNSLNPEDTAVYYCAADEYDYYHSRWYEYWGQGTQVTVSS	high polyreactivity
QGQLVESGGGLVQAGGRLRLSCAASGSIFASYAMGWYRQAPGKERELVAAITSDGNTYYADSVKGRFTISRDNAKNTVYLQMNSLKPEDTAVYYCAADRYSTYPYAKGTEFYYWGQGTQVTVSS	low polyreactivity
QVQLVESGGGLVQAGGSLRLSCAASGITFGYYAMGRYRQAPGKERELVAAISNSGRTYYADSVKGRFTISRDNAKNTVYLQMNSLKPEDTAVYYCAVRISGNWYDYWGQGTQVTVSS	low polyreactivity
QVQLVESGGGLVQAGGSLRLSCAASGSTFPLYTMGWYRQAPGKERELVAAINYGGTSTYYADSVKGRFTISRDNAKNTVYLQMNSLKPEDTAVYYCKQFVPGRYYWGQGTQVTVSS	high polyreactivity
QVHLVESGGGLVQAGGSLRLSCAASGRIFYYYAMGWYRQAPGKEREFVAAIRISGGSTNYADSVKGRFTISRDNAKNTVYLQMNSLKPEDTAVYYCAARSKYSGIRRAYDYWGQGTQVTVSS	high polyreactivity
QVQLVESVGGVVQAGGSLRLCCAANRSTFAAKAMGWYRQAPGKERELGAAITSGGGTNYADSVKGRFTISRDNAKNTVYLQMNSLKPEDTAVYYCAARTWPWVLGATQDDYWGQGTQVTLSS	low polyreactivity
QVQIVESGGGLVQAGGSLRLSCAASGRIFYNYAMGWNRQAPGKERELVAAISGSGGSTYYADSVKGRFTISRDNAKNTVYLQMNSLKPEDTAVYYCSTSGPQYYSRNFDYWGQGTQVTVSS	low polyreactivity
QVQLVESGGGLVQAGGSLRLSCAASGSIFSYYAMGWYRQEPGKERELVAAITWSGTRTYYADSVKGRFTISRDNAKNTVYLQMISLKPEDTAVYYCATEYDYWDDSYDSWGLGTQVTVSS	low polyreactivity
QVQRVESGGGLVQAGGSLRLSCAASGSILGIYGMGWYRQAPGKERELVAAISYSGGSTYYADSVKGRFTISSDNAKNTVYLQMNSLKPEDNAVYYCAADLTRGVSYYVDFYYWGQGTQVTVSS	low polyreactivity
QVQLVESGGGLVQAGGSLRLSCASSGSIFARYALGWYIQAPGKQRELVADINSTVSTNYADSVKGRFTISRDNAKNPVYLQMNSLKPEVTAVSYCAVDIVRGGRDSWGQGTQVTVSS	low polyreactivity
QVQLVESGGGLVQAGGSIRLSCAASGSTFRGYSMGWYRQAPGKERELVAAISSRGARTHYADSVKGRFTISRDNSKNTVYLQMNCLKPEDTAVYDCAKVWVRSGRRKMDYWGQGTQVTVSS	low polyreactivity
QVQLVESGGGLVQAGGSLRLSCAASGSTFRSNAMGWYRQAPGKERELVAAITYSGGRTYYADSVKGRFTFSRDNAKNTVYLQMNSLIPEDTAVYYCAKVGWSRRYYYWGQGTQVTVSS	high polyreactivity
QVQLVESGGGLVQAGGSLRLSCAASGFTFGYYAMGWYRQAPGKERELVAAITFRGGRTYYADSVKGRFTISRDNAKNTVYLQMNSLKPEDTAVYYCAALSLVRYYHNANYYPYYYWGQGTQVTVSS	high polyreactivity
QVQLVESGGGLVQAGGSLRLICAASGYIFDHYAMGWYRQAPGKERELVAAINWSGGRTYYADSVKGRFTISRDNAKNTVYLQMNSLKPEDTAVYYCAAGGVSENDYWGQGTQVTVSS	high polyreactivity
QVHLVESGGGLVQAGGSLRLSCAASGLIFGKNAMGWYRQPPGKERELVAAISSGESTYADSVKWRFTISRDNAKNTVYLQMNSLKPEDTAVYYCNAEVLRESYDRHPTTDYYWGQGTQVTVSS	low polyreactivity
QVQLVESGGGLVQAGGSLRLSCAASGSTFYPNAMGWYRQAPGKERELVAAISRGTRTKYADSVKGRFTISRDNAKNTVYLQMNSLKPEDTAVYYCAADTGTGLDWGQGTQVNVSS	high polyreactivity
QVQLVESGGGLVQAGGSLRLSCAASGGTLATYAMGWYRQAPGKERELVARIRIGGSTNYADSVKGRFTISRDNAKNTVYLQMNSLKPEDTAVYYCNKYSVLSRQRYSHPVNYDSWGQGTQVTVSS	high polyreactivity
QVQLVESGGGLVQAGGSLRLSCAASGSTFVDNAMGWYRQAPGKEREFVAAIDWSGGSTFYADSVKGRFTISRDNAKNTVYLQMNSLKPEDTAVYYCAAYPQAYIADYDYWGQGTQVTVSS	low polyreactivity
QGQLVESGGGLVQAGGSLRLSCAASGRTFRYNAMGWYRQAPGKERELVAAITWGGGSTDYADSVKGRFTISRDNAKNTVYLQMHSLKPEDTAVYYCNADYIGNYHSIYQYDYWGQGTQVTVSS	low polyreactivity
QVQLVESGGGLVQAGGSIRLSCADSGIIFQANAMGWYRQAPRKERELVAGISRGSSTNYADSVKGRFTISLDNAKNTVYLQMNSLKPEDTAVYYCSAGFYYRPFYGSSHSYGYWGQGTQVTVSS	low polyreactivity
QVQLVESGGGLVQAGGSLRLSCAASGLTLYKYAMGWYRQADGKVRELVATSRSRGTSTYYADSVKGRFTISRDNAKNTVYLQMNSLKPEDTAVYDCAADYLYRWLFAYNGGMDYCGQGTQVTVSS	high polyreactivity
